Test results: patent US20120316071A1 (published 2012)
Changes are numbered by the printed parent chain. In names and notes the source's numbering stands. Values belong to the binder of their own block, whether it stands above or below them.

Target: T1, Recombinant Human DLL4 (human, UniProt Q9NR61 27-524)
T1 construct: Bought recombinant human DLL4 (R&D Systems Cat#1506-D4/CF); also called delta-like protein 4; Delta-like 4
Experiment: ELISA, DLL4 coated on the plate, Fab at 100 nM, signal minus blank

ELISA Signal-blank (100 nM Fab): 0.598
B1: Fab VH5-51_IGHD5-18*01>3_IGHJ4*01 G100K/G104T G24T/S28R/G35V (H:KT TRV) & V3-4_IGLJ1*01 S57A (Fab, V domains shown)
VH: EVQLVQSGAEVKKPGESLKISCKTSGYRFTSYWIVWVRQMPGKGLEWMGIIYPGDSDTRYSPSFQGQVTISADKSISTAYLQWSSLKASDTAMYYCARRKYSYTYDYFDYWGQGTLVTVSS
VL: QTVVTQEPSFSVSPGGTVTLTCGLSSGSVSTSYYPSWYQQTPGQAPRTLIYSTNTRASGVPDRFSGSILGNKAALTITGAQADDESDYYCVLYMGSGISYVFGTGTKVTVL
notes: Fab; expressed from plasmid A (CH1, His6 and Flag tags) and plasmid E (lambda CL)

ELISA Signal-blank (100 nM Fab): 0.195
B2: Fab VH5-51_IGHD5-18*01>3_IGHJ4*01 G100K/G104T G24T/S28R/G35V (H:KT TRV) & V3-4_IGLJ1*01 M94S (Fab, V domains shown)
VH: B1 VH
VL: B1 VL with A57S, M94S
notes: as for B1

ELISA Signal-blank (100 nM Fab): 0.388
B3: Fab VH5-51_IGHD5-18*01>3_IGHJ4*01 G100K/G104T G24T/S28R/G35V (H:KT TRV) & V3-4_IGLJ1*01 M94L (Fab, V domains shown)
VH: B1 VH
VL: B1 VL with A57S, M94L
notes: as for B1

ELISA Signal-blank (100 nM Fab): 0.562
B4: Fab VH5-51_IGHD5-18*01>3_IGHJ4*01 G100K/G104T G24T/S28R/G35V (H:KT TRV) & V3-4_IGLJ1*01 S96G (Fab, V domains shown)
VH: B1 VH
VL: B1 VL with A57S, S96G
notes: as for B1

ELISA Signal-blank (100 nM Fab): 0.315
B5: Fab VH5-51_IGHD5-18*01>3_IGHJ4*01 G100K/G104T G24T/S28R/G35V (H:KT TRV) & V3-4_IGLJ1*01 M94V (Fab, V domains shown)
VH: B1 VH
VL: B1 VL with A57S, M94V
notes: as for B1

ELISA Signal-blank (100 nM Fab): 0.07
B6: Fab VH5-51_IGHD5-18*01>3_IGHJ4*01 G100K/G104T G24T/S28R/G35V (H:KT TRV) & V3-4_IGLJ1*01 M94D (Fab, V domains shown)
VH: B1 VH
VL: B1 VL with A57S, M94D
notes: as for B1

ELISA Signal-blank (100 nM Fab): 0.261
B7: Fab VH5-51_IGHD5-18*01>3_IGHJ4*01 G100K/G104T G24T/S28R/G35V (H:KT TRV) & V3-4_IGLJ1*01 S96W (Fab, V domains shown)
VH: B1 VH
VL: B1 VL with A57S, S96W
notes: as for B1

ELISA Signal-blank (100 nM Fab): 0.171
B8: Fab VH5-51_IGHD5-18*01>3_IGHJ4*01 G100K/G104T G24T/S28R/G35V (H:KT TRV) & V3-4_IGLJ1*01 M94E (Fab, V domains shown)
VH: B1 VH
VL: B1 VL with A57S, M94E
notes: as for B1

ELISA Signal-blank (100 nM Fab): 0.318
B9: Fab VH5-51_IGHD5-18*01>3_IGHJ4*01 G100K/G104T G24T/S28R/G35V (H:KT TRV) & V3-4_IGLJ1*01 N54A (Fab, V domains shown)
VH: B1 VH
VL: B1 VL with N54A, A57S
notes: as for B1

ELISA Signal-blank (100 nM Fab): 0.152
B10: Fab VH5-51_IGHD5-18*01>3_IGHJ4*01 G100K/G104T G24T/S28R/G35V (H:KT TRV) & V3-4_IGLJ1*01 V91E (Fab, V domains shown)
VH: B1 VH
VL: B1 VL with A57S, V91E
notes: as for B1

ELISA Signal-blank (100 nM Fab): 0.336
B11: Fab VH5-51_IGHD5-18*01>3_IGHJ4*01 G100K/G104T G24T/S28R/G35V (H:KT TRV) & V3-4_IGLJ1*01 V91I (Fab, V domains shown)
VH: B1 VH
VL: B1 VL with A57S, V91I
notes: as for B1

ELISA Signal-blank (100 nM Fab): 0.529
B12: Fab VH5-51_IGHD5-18*01>3_IGHJ4*01 G100K/G104T G24T/S28R/G35V (H:KT TRV) & V3-4_IGLJ1*01 V91A (Fab, V domains shown)
VH: B1 VH
VL: B1 VL with A57S, V91A
notes: as for B1

ELISA Signal-blank (100 nM Fab): 0.197
B13: Fab VH5-51_IGHD5-18*01>3_IGHJ4*01 G100K/G104T G24T/S28R/G35V (H:KT TRV) & V3-4_IGLJ1*01 M94R (Fab, V domains shown)
VH: B1 VH
VL: B1 VL with A57S, M94R
notes: as for B1

ELISA Signal-blank (100 nM Fab): 0.442
B14: Fab VH5-51_IGHD5-18*01>3_IGHJ4*01 G100K/G104T G24T/S28R/G35V (H:KT TRV) & V3-4_IGLJ1*01 R56A (Fab, V domains shown)
VH: B1 VH
VL: B1 VL with R56A, A57S
notes: as for B1

ELISA Signal-blank (100 nM Fab): 0.256
B15: Fab VH5-51_IGHD5-18*01>3_IGHJ4*01 G100K/G104T G24T/S28R/G35V (H:KT TRV) & V3-4_IGLJ1*01 M94P (Fab, V domains shown)
VH: B1 VH
VL: B1 VL with A57S, M94P
notes: as for B1

ELISA Signal-blank (100 nM Fab): 0.216
B16: Fab VH5-51_IGHD5-18*01>3_IGHJ4*01 G100K/G104T G24T/S28R/G35V (H:KT TRV) & V3-4_IGLJ1*01 M94A (Fab, V domains shown)
VH: B1 VH
VL: B1 VL with A57S, M94A
notes: as for B1

ELISA Signal-blank (100 nM Fab): 0.395
B17: Fab VH5-51_IGHD5-18*01>3_IGHJ4*01 G100K/G104T G24T/S28R/G35V (H:KT TRV) & V3-4_IGLJ1*01 M94T (Fab, V domains shown)
VH: B1 VH
VL: B1 VL with A57S, M94T
notes: as for B1

ELISA Signal-blank (100 nM Fab): 0.205
B18: Fab VH5-51_IGHD5-18*01>3_IGHJ4*01 G100K/G104T G24T/S28R/G35V (H:KT TRV) & V3-4_IGLJ1*01 M94N (Fab, V domains shown)
VH: B1 VH
VL: B1 VL with A57S, M94N
notes: as for B1

ELISA Signal-blank (100 nM Fab): 0.451
B19: Fab VH5-51_IGHD5-18*01>3_IGHJ4*01 G100K/G104T G24T/S28R/G35V (H:KT TRV) & V3-4_IGLJ1*01 S58A (Fab, V domains shown)
VH: B1 VH
VL: B1 VL with A57S, S58A
notes: as for B1

ELISA Signal-blank (100 nM Fab): 0.248
B20: Fab VH5-51_IGHD5-18*01>3_IGHJ4*01 G100K/G104T G24T/S28R/G35V (H:KT TRV) & V3-4_IGLJ1*01 V91G (Fab, V domains shown)
VH: B1 VH
VL: B1 VL with A57S, V91G
notes: as for B1

ELISA Signal-blank (100 nM Fab): 0.127
B21: Fab VH5-51_IGHD5-18*01>3_IGHJ4*01 G100K/G104T G24T/S28R/G35V (H:KT TRV) & V3-4_IGLJ1*01 V91H (Fab, V domains shown)
VH: B1 VH
VL: B1 VL with A57S, V91H
notes: as for B1

ELISA Signal-blank (100 nM Fab): 0.382
B22: Fab VH5-51_IGHD5-18*01>3_IGHJ4*01 G100K/G104T G24T/S28R/G35V (H:KT TRV) & V3-4_IGLJ1*01 T55A (Fab, V domains shown)
VH: B1 VH
VL: B1 VL with T55A, A57S
notes: as for B1
